Ends that are not written are not given here. * marks the point of attachment. GlcNAc2 = N-linked chitobiose, CC(=O)N[C@@H]1[C@@H](O)[C@H](O[C@@H]2O[C@H](CO)[C@@H](O)[C@H](O)[C@H]2NC(C)=O)[C@@H](CO)O[C@H]1*

The values below come from patent publication US20180112008A1 (Memorial Sloan Kettering, published 2018).

Experiment [1] has as its target T1, (GlcNAc2)2-18-mer glycopeptide, unconjugated (human).
T1 construct: Used in ELISA without KLH; also called 18-mer(chitobiose)2[C-T22-V38]; 18mer-chitobiose peptide
T1 peptide: Ac-CTRN(GlcNAc2)GTQLQN(GlcNAc2)FTLDRSSV-NH2
The experiment is described as follows: sandwich ELISA on 'MUC16 18mer + GlcNAc2'; Blank 0.029. In general terms: ELISA stands for enzyme-linked immunosorbent assay.

Experiment [2] concerns the target T2, MUC16 unrelated peptide 18mer.
T2 construct: Negative control peptide without glycan
T2 peptide: GAVPRSATINVSRIATGP
The experiment is described as follows: sandwich ELISA on 'MUC16 unrelated peptide 18mer'; Blank 0.013.

Experiment [3] has as its target T3, MUC16^c114-N2 (human, chain 1 pos 1 and pos 30: N-glycosylated Asn (cell-made glycans), written N).
T3 construct: MUC16^c114 with Asn24 (Asn1800) changed to Ala, on SKOV3 cells; also called N24 mut c114; SKOV3-N24 mutc114; not shown: hrGFP of the phrGFP II-C vector, fused at the cytoplasmic carboxy-terminus
T3 chain: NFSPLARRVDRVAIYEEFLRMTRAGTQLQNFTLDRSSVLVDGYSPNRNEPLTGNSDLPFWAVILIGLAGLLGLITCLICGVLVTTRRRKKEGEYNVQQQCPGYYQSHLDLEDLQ
The experiment can be described thus: FACS, SKOV3-N24 mutc114. Background: A flow cytometer gives signals particle by particle.

The target in experiment [4] is T4, MUC16 18mer (not fully specified).
T4 construct: also called non-glycosylated 18-mer MUC16 peptide
T4 peptide: CTRNGTQLQNFTLDRSSV
The experiment is described as follows: ELISA during fusion screen, dilution 400, column 18.

For experiment [5], the target named is T5, MUC16 unrelated peptide 18mer+GlcNAc2 (also: GlcNAc2 (chitobiose), site not given here).
T5 construct: Negative control glycopeptide; also called unrelated chitobiose-linked peptide
T5 peptide: GAVPRSATINVSRIATGP
The experiment is described as follows: sandwich ELISA on 'MUC16 unrelated 18mer + GlcNAc2'; Blank 0.014.

In experiment [6] the target is T6, MUC16 18mer + GlcNAc2-Trimannose (also: N-linked Man3GlcNAc2, Asn site not given here).
T6 construct: also called 18-mer with Man3GlcNAc2
T6 peptide: CTRNGTQLQNFTLDRSSV
The experiment is described as follows: sandwich ELISA on 'MUC16 18mer + GlcNAc2-Trimannose'; Blank 0.035.

Experiment [7] deals with T5, MUC16 unrelated peptide 18mer+GlcNAc2. The experiment is described as follows: sandwich ELISA.
Experiment [8] deals with T2, MUC16 unrelated peptide 18mer. The experiment is described as follows: sandwich ELISA.
Experiment [9] addresses T7, MUC16 nonglycosylated peptide 2 (human).
T7 construct: Peptide used to elicit the 4H11 antibody; also called nonglycosylated MUC16 peptide 2
T7 peptide: CTLDRSSVLVDGYSPNRNE
The experiment is described as follows: sandwich ELISA.

For experiment [10], the target named is T7, MUC16 nonglycosylated peptide 2. The experiment can be described thus: sandwich ELISA on 'MUC16 Nonglycosylated Peptide2'; Blank 0.029.
The target of experiment [11] is T8, MUC16 18mer + GlcNAc1 (also: N-linked single GlcNAc, Asn (N4, N10 or both) not given here).
T8 construct: also called 18-mer with a single GlcNAc
T8 peptide: CTRNGTQLQNFTLDRSSV
The experiment is described as follows: sandwich ELISA on 'MUC16 18mer + GlcNAc1'; Blank 0.042.

Experiment [12] concerns the target T9, MUC16^c114 on SKOV3 cells with MGAT5 knock-down (human, N-glycans without MGAT5-dependent tetra-antennary branching ; chain 1 pos 1, 24 and 30: N-glycosylated Asn, written N; the glycans lack MGAT5-dependent tetra-antennary branching (shRNA knock-down)).
T9 construct: Same polypeptide as MUC16^c114, other glycoform (shRNA against MGAT5); also called SKOV3-shMGAT5-c114; MUC16^c114-shMGAT5; not shown: hrGFP of the phrGFP II-C vector, fused at the cytoplasmic carboxy-terminus
T9 chain: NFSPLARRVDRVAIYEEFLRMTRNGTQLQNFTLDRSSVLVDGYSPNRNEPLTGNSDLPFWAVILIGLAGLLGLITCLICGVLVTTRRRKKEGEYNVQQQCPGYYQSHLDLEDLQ
The experiment is described as follows: FACS, SKOV3-shMGAT5-c114.

Experiment [13] has as its target T10, non-glycosylated 15-mer MUC16 peptide (human).
T10 construct: Same peptide as the GlcNAc2-15-mer without the glycan; also called unglycosylated 15-mer
T10 peptide: CGTQLQNFTLDRSSV
The experiment can be described thus: ELISA 12/24/13 (sups from time of freezing), dilution 400, column 15.

Experiment [14] has as its target T1, (GlcNAc2)2-18-mer glycopeptide, …. The experiment is described as follows: ELISA 12/24/13 (sups from time of freezing), dilution 400, column 18S.
The target of experiment [15] is T11, MUC16^c114 (human, capable of N-glycosylation at Asn1, Asn24 and Asn30 ; chain 1 pos 1, 24, 30: Asn capable of N-glycosylation on the transfected cells, written N).
T11 construct: The forward primer adds Met-Val before Asn1; also called MUC16^c114-GFP; SKOV3 MUC16^c114; not shown: hrGFP of the phrGFP II-C vector fused at the cytoplasmic carboxy-terminus, with its short cloning linker
T11 chain: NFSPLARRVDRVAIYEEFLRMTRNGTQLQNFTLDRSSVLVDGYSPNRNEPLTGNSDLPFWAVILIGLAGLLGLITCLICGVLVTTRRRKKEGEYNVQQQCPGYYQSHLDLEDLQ
The experiment can be described thus: FACS, SKOV3-c114.

Experiment [16] concerns the target T12, biotinylated chitobiose-conjugated 18-mer glycopeptide (human, also: biotinylated, site not given here).
T12 construct: Cys plus T22-V38 of MUC16^c114; The range is derived from T22-V38 and the statement that c114 is 1777-1890; the N-terminal Cys is added; also called (GlcNAc2)2-18-mer, biotinylated; 18-mer(chitobiose)2[C-T22-V38]
T12 peptide: Ac-CTRN(GlcNAc2)GTQLQN(GlcNAc2)FTLDRSSV-NH2
The experiment is described as follows: binding affinity table of Example 3; target not named there, taken as in Table 9 (Octet BLI, biotinylated chitobiose 18-mer). Summed up:
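Binding was measured by biolayer interferometry on a ForteBio Octet QK, with 5 μg/mL biotinylated chitobiose-conjugated 18-mer glycopeptide loaded onto streptavidin biosensors. Excess antigen was washed off, and mouse antibodies were run at 10 μg/mL for association and dissociation steps. Kd, kon and koff came from a 1:1 binding site model with partial fit.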
(In general: In BLI a coated tip is dipped into the sample, and binding shifts an interference pattern.)

The target of experiment [17] is T13, GlcNAc2-15-mer glycopeptide, unconjugated (human).
T13 construct: Cys plus G25-V38 of MUC16^c114; Used in ELISA without KLH; also called 15-mer(chitobiose)[C-G25-V38]; 15mer-chitobiose peptide
T13 peptide: Ac-CGTQLQN(GlcNAc2)FTLDRSSV-NH2
The experiment is described as follows: sandwich ELISA on 'MUC16 15mer + GlcNAc2'; Blank 0.019.

The target of experiment [18] is T4, MUC16 18mer. The experiment is described as follows: sandwich ELISA on 'MUC16 18mer'; Blank 0.032.
Experiment [19] concerns the target T13, GlcNAc2-15-mer glycopeptide, …. The experiment is described as follows: ELISA 12/24/13 (sups from time of freezing), dilution 400, column 15S.

B1: 18C6.D12 (antibody, V domains shown)
VH: QVTLKESGPGILQPSQTLSLTCSFSGFSLSTVGMGVGWSRQPSGKGLEWLAHIWWDDEDKYYNPALKSRLTISKDTSKNQVFLKIANVDTADTATYYCTRIGTAQATDALDYWGQGTSVTVSS
VL: DIVMTQAAPSVPVTPGESVSISCRSSKSLLHSNGNTYLYWFLQRPGQSPQRLIYYMSNLASGVPDRFSGRGSGTDFTLRISRVEAEDVGVYYCMQSLEYPLTFGGGTKLEIK
notes: Mouse monoclonal from a hybridoma; also called MUC16 Glycosylation Antibody 18C6
For orientation: Kd means a measure of binding affinity in units of concentration. A word on the koff: it is the rate constant with which the complex falls apart. Read a low koff as slow dissociation. Turning to B1, the ELISA signal was determined as 1.06 in experiment [1]; 0.02 in [2]; 0.39 in [4]; 0.02 in [5]; 0.89 in [6]; 0.02 in experiment [10]. Also, the ELISA signal in [11] amounted to 0.95; in [13], 0.44; in [14], 0.55; in [17], 1.44; in experiment [18], 1.01; in experiment [19], 0.14. Further, the “geometric mean phycoerythrin (PE) fluorescence” value (shortened to “geometric mean phycoerythrin”) was 1830 in [3], 855 in experiment [12] and 2050 in experiment [15]. The binding result in [7], in [8] and in [9] was “no binding” in each case. The Kd in experiment [16] worked out at 11.1 nM. The same molecule yielded a koff in [16] of 0.000678 s⁻¹.

B2: 19C11.H6 (antibody, V domains shown)
VH: QVNLKESGPGKLQPSQTLSLTCSFSGFSLSTLGMGVGWIRQSSGKGLEWLAHIWWDDDKYYNPALKSRLTISRATSKNQVFLKIVNVGTADTATYYCARIGTAQATDALDYWGQGTSVTVSS
VL: DIVMTQAAPSIPVTPGESVSISCRSSKSLLHSNGNTYLYWFLQRPGQSPQRLIYYMSNLASGVPDRFSGRGSGTDFTLKISRVEAGDVGVYYCMQGLEHPLTFGGGTKLEIK
notes: Mouse monoclonal from a hybridoma; Used as 89Zr-DFO-labelled antibody in the internalization assay; also called MUC16 Glycosylation Antibody 19C11
As usually defined, the kon is the second-order rate constant of association. High values mean faster complex formation, low ones slower complex formation. Consider B2, for which the ELISA signal was 1.1 in experiment [1]; 0.03 in experiment [2]; 0.38 in experiment [4]; 0.03 in [5]; 0.99 in [6]; 0.03 in experiment [10]. Besides, the ELISA signal in [11] was found to be 0.96; in [13], 0.3; in experiment [14], 0.36; in experiment [17] it was 1.51; in [18], 0.98; in experiment [19], 0.1. In addition, the “geometric mean phycoerythrin” value in experiment [3] was found to be 486; in [12], 525; in [15] it was 617. Besides, the binding result in experiment [7], in experiment [8] and in experiment [9] was “no binding” throughout. For the same molecule, the Kd in experiment [16] was found to be 63.7 nM. In experiment [16], the koff worked out at 0.00242 s⁻¹. The association rate constant (kon) in [16] stood at 38000 M⁻¹ s⁻¹.

B3: 7B12.B3 (antibody, V domains shown)
VH: QVTLKESGPGILQPSQTLSLTCSFSGFSLSTVGMGVGWSRQPSGKGLEWLAHIWWDDEDKYYNPALKSRLTISKDTSKNQVFLKIANVDTADSATYYCTRIGTAQATDALDYWGQGTSVTVSS
VL: DIVMTQAAPSVSVTPGESVSISCRSSKSLRKSNGNTYLYWFLQRPGQSPQRLIYYMSNLASGVPDRFSGRGSGTDFTLRISRVEAEDVGVYYCMQSLEYPLTFGGGTKLKIK
notes: Mouse monoclonal from a hybridoma; also called MUC16 Glycosylation Antibody 7B12
For the molecule B3, the ELISA signal in experiment [1] was found to be 1.06; in experiment [2], 0.04; in experiment [4] it was 0.53; in experiment [5], 0.03; in experiment [6], 1.05; in [10], 0.02. Besides, the ELISA signal in [11] stood at 1.03; in experiment [13] it was 0.44; in experiment [14], 0.51; in experiment [17] it was 1.32; in experiment [18], 1.09; in experiment [19] it was 0.25. Further, the “geometric mean phycoerythrin” value in [3] was found to be 471; in experiment [12], 289; in experiment [15], 492. For the same molecule, the binding result in [7], in experiment [8] and in experiment [9] was “no binding” throughout. In addition, the Kd in experiment [16] worked out at 13.8 nM. The off-rate (koff) in experiment [16] came out at 0.00104 s⁻¹.
